Assay results reported in the nanobody polyreactivity screen of Harvey et al. (2022).

Assay: yeast display, Sf9 membrane polyspecificity reagent, FACS + sequencing; frameworks hold sequencing errors
In short: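 Galactose induction of a Saccharomyces cerevisiae BJ5465 synthetic nanobody display library ran 36–48 hours. The cells were then stained for 1 hour at 4 °C with 10% biotinylated, detergent-solubilized Sf9 membrane reagent, pulled down on streptavidin microbeads and FACS-sorted into low and high (top ~1%) gates on expression and reagent-binding fluorescence. Labels for polyreactivity follow the gate of origin.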

Row | Sequence | polyreactivity (PSR sort gate)
1 | QVQLVESGGGLVQAGGRLRLSCAASGIIFPRYAMGWYRQAPGKERELVAAISGSGVGTYYADSVKGRFTISRDYAKNTVYIQMNSLKPEDTAVYSCATRYQWGGPYYRYDYWGQGTQVTVSS | high polyreactivity
2 | KVQLVESGGGLVQAGGSLRLSRAASGFTFGSYAMGWYRQAPGKERELVAAITRRGGSTRYADSVKGRFTISRDNAKNTVYLQMNSLKPEDTAVYYCAAKHGRNYAANALYGYWGQGTQVTVSS | high polyreactivity
3 | QVQLVESGGGLVQAGGSLRLSCAASGRTSRYALGWYRQAPGKERELVAAISRNGGTTSYADSVKGRFTISRDNAKNTVYLQMNSLKPEDTAVYYCNAYSAFVPPTRGYYWGQGTQVTVSS | high polyreactivity
4 | QVQLVESGGGLVQAGGSLRLSCAASGFIFDWYAMGSYSQAPGKEREFVAAINWSGGSTYYADSVKGRFTISRDNAKNTVYLQMNSLKPEDTAVYYCAAYRPYSSSEGVYWGQGTQVTVSS | high polyreactivity
5 | QVHLVESGGGLVQAGGSLRLSCAASGSTFKPYTMGWYRQAPGKERELVAAITSRGTSTYYADSVKGRFKISRDNAKNTVYLQMNSLKPEDTEVYYCAARRPGTFSYGYWGQGTQVTVSS | high polyreactivity
6 | QVQLVESGGGLVQAGGSLRLSCAASGFTFRTYAMGWYRQAPGKEREYVAAINGRSGSTYADSVKGRFTISRDNAKNTVYLQMISLKPEDTAVYYCAARVRRGSTQAQFYYWGQGTQVTVSS | high polyreactivity
7 | QVQLVESGGGLVQAGGSLRLSCAASGFTFTNYVMGWYRQAPGKETELVAAIRRSGDSTYYADSVKGRFTISRDNAKNTVYLQMNSLKPEATAVYYCNAVAYGRTYDYWGQGTQVTVSS | high polyreactivity
8 | QVQLVESGGGLVQAGGSLRLSCAASGRTFYVNAMGWYRQAPGKERELVAAIRYSDGRTYYADSVKGRFTISRDNAKNTVYLQMNSLKPEDTAVYYCAVGSRSWPYDYWGQGTQVTVSS | high polyreactivity
9 | QDQLLESGGGVFQAGGSLRLSCAASGVIFGSYALGWYRPAPGKERELVADITQSGGRTRYADSVKGRFTISRDNAKNTVYLQMNSLKPEDSAVYYCNAQDVDSGDDYDYWGQGTQVTLSS | low polyreactivity
10 | QVQLVESGGGLVQAGGSLRLSCAASGRTFATYAMGWYRQAPGKERELVAAITSGGSTNYADSVKGRFTISRDNAKNTVYLQMNSLKPEDTAVYYCNAYKTNRGSGPWYTGRYDYWGQGTQVTVSS | low polyreactivity
11 | QVQLVESGGGLVQAGGSLRLSCAASGSTFTYYAMGWYRQAPGKERELVAAIRNGGSTNYADSVKGRFTISRDNAKNTVYFQMNSLKPEDTAVSYCAADQYYYTQPCDMDYWGQGTQVTVSS | high polyreactivity
12 | QVQLVESGGGLVQAGGSLRLSCAASGFIFTGYAMGWYRQAPGKERELVAAISRRGGSTYYADSVKGRFTISRDNAKNTVYLQMNSLKPEDTAVYYCAARTRTNGFDDWGQGTQVTVSS | high polyreactivity
13 | QVQLVESGGGLVQAGGSLRLSCAASGRTFYYYVMGWYIQAPGKERELVAAITLRGGSTYYADSVKGRFTISRDNAKNTVYLQMNSLKPEDTAVYYCNARGGSSTYGNYYWGQGTQVTVSS | low polyreactivity
14 | QVHLVESGGGLVQAGGSLRLSCAASVRTYRGNAMGWYRQAPGKEREMVAAITYRTGSTYYADSVKGRFTISRDNAKNTVYLLMNSLKPEDTAVYYCAAVSGRSYDKYYYWGQGTQVTVSS | high polyreactivity
15 | QVQLVESGGGLVQAGGSLRLSCAASGFTFSQNAMGWYRQAAGKERELVAAITGDGGSTYYADSVKGRFTISRDNAKNTVFLQMNSLKPEDTAVYYCAADPSPYSAFGIYWFRYDYWGQGTQVTVSS | low polyreactivity
16 | QVQLVESGGGLVQAGGSLRLSCAASGFIFSPYAMGWYRQAPGKVRELVAAISRRGGSTYYADSVKGRFTISRDNAKNTVYLQMNSLKPEDTAVYYCAAVYGASQVDYDYWGQGTQVTVSS | high polyreactivity
17 | QVQLVESGGGLVQAGGSIRLSCAASGRIFQYYAMGWYRQAPGKERELVAAISRSGGRTRYADSVKGRFTISRDNAKNTVYLQMNSLKPEDTAVYYCAASYGYDSTSLYDYWGQGTQVTVSS | high polyreactivity
